Experimental findings from the supplement of paper PMC7877785 are described below.

± gives the uncertainty stated by the source.

This data set is described as follows: self-splicing fitness, log relative to wild type (ln ratio); higher = more splicing; Tetrahymena group I intron in knt gene, E. coli kanamycin selection, DiMSum; sequences stand for … in CUCUCU…GGAGGGAAAAGUUAUCAGGCAUGCACCUGGUAGCUAGUCUUUAAACCAAUAGAUUGCAUCGGUUUAAAAGGCAAGACCGUCAAAUUGCGGGAAAGGGGUCAACAGCCGUUCAGUACCAAGUCUCAGGGGAAACUUUGAGAUGGCCUUGCAAAGGGUAUGGUAAUAAGCUGACGGACAUGGUCCUAACCACGCAGCCAAGUCCUAAGUCAACAGAUCUUCUGUUGAUAUGGAUGCAGUUCACAGACUAAAUGUCGGUCGGGGAAGAUGUAUUCUUCUCAUAAGAUAUAGUCGGACCUCUCCUUAAUGGGAGCUAGCGGAUGAAGUGAUGCAACACUGGAGCCGCUGGGAACUAAUUUGUAUGCGAAAGUAUAUUGAUUAGUUUUGGAGUACUCGUGGUCG
A digest of the protocol: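 Six replicate transformations of E. coli BL21(DE3) with a pET-22b(+) library were grown overnight at 37°C or 30°C. The library randomised all eight P1ex-region intron nucleotides, the intron lying in the knt kanamycin-resistance gene, and plates were LB agar with or without 25 μg/mL kanamycin plus 100 μg/mL carbenicillin, 50 μM IPTG and 0.2% rhamnose. Pooled colonies were amplicon-sequenced on an Illumina HiSeq 2500, and fitness is the DiMSum error-weighted combination of wild-type-normalised replicate fold changes, kanamycin versus none.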

As to CCCAAGCAAUAUUACGGAAA, the “self-splicing fitness (ln)” value reads like this: (30 °C) -2.22 ± 0.15; (37 °C) -3.47 ± 0.3. In the same order, the values of GACAAGCAAUAUUACGCGCG are -0.648 ± 0.091 and -0.467 ± 0.11. Consider ACUCAGCAAUAUUACGGCUA, for which the “self-splicing fitness (ln)” value runs as follows: (30 °C) -0.553 ± 0.089; (37 °C) 0.149 ± 0.093. In the same order, the values of CCCAAGCAAUAUUACGUGGA are -0.971 ± 0.052 and -0.376 ± 0.061. For CUCGAGCAAUAUUACGAGUG, in that order: -1.7 ± 0.1 and -1.47 ± 0.12.

With UUCUAGCAAUAUUACGCUGC, under “37 °C”, the “self-splicing fitness (ln)” value is -2.1 ± 0.38. Take CUUUAGCAAUAUUACGGAUA: the “self-splicing fitness (ln)” value was -3.21 ± 0.42 (30 °C) and -2.7 ± 0.34 (37 °C).

On to GAUAAGCAAUAUUACGCCUC, for which the “self-splicing fitness (ln)” value (37 °C) is -2.35 ± 0.42. On to UAAUAGCAAUAUUACGUAGA, for which the “self-splicing fitness (ln)” value is, setting by setting: (30 °C) -3.52 ± 0.18; (37 °C) -1.98 ± 0.17. On to UUGGAGCAAUAUUACGUUCU, for which the “self-splicing fitness (ln)” value (37 °C) is -3.09 ± 0.27.

Consider AGAAAGCAAUAUUACGCGUG, for which the “self-splicing fitness (ln)” value by setting is: (30 °C) -1.72 ± 0.087; (37 °C) -0.548 ± 0.093. For GUUAAGCAAUAUUACGUCUG, in that order: -1.38 ± 0.098 and -1.3 ± 0.13.

On to AUAUAGCAAUAUUACGGCGG, for which the “self-splicing fitness (ln)” value is -1.04 ± 0.17 (30 °C) and -0.534 ± 0.26 (37 °C). For CUUAAGCAAUAUUACGCUUA, in that order: -3.39 ± 0.32 and -1.58 ± 0.2. As for CCAGAGCAAUAUUACGUGAG, the “self-splicing fitness (ln)” value is -0.95 ± 0.061 (30 °C) and -0.428 ± 0.074 (37 °C). For UAUAAGCAAUAUUACGCGAA, in that order: -1.09 ± 0.15 and -0.98 ± 0.16. In the same order, the values of GGUUAGCAAUAUUACGACCU are -1.72 ± 0.35 and -0.0941 ± 0.33.

For the sequence AACUAGCAAUAUUACGUACU, the “self-splicing fitness (ln)” value by setting is: (30 °C) -0.0487 ± 0.053; (37 °C) 0.151 ± 0.073. In the same order, the values of AAAGAGCAAUAUUACGGGGC are -4.4 ± 0.42 and -2.79 ± 0.36. For ACAUAGCAAUAUUACGGUUG, in that order: -2.29 ± 0.079 and -1.95 ± 0.1. For AUGAAGCAAUAUUACGAUGU, in that order: 0.274 ± 0.092 and -0.284 ± 0.099. Turning to GGCUAGCAAUAUUACGACCU, the “self-splicing fitness (ln)” value (30 °C) was -0.605 ± 0.081 and the “self-splicing fitness (ln)” value (37 °C) came out at 0.0864 ± 0.09.

In the case of GUCCAGCAAUAUUACGUUUG, the “self-splicing fitness (ln)” value by setting is: (30 °C) -2.85 ± 0.11; (37 °C) -0.981 ± 0.1. For GGUAAGCAAUAUUACGACUA, in that order: 0.407 ± 0.12 and -0.574 ± 0.12. For the sequence AAUUAGCAAUAUUACGGAGA, the “self-splicing fitness (ln)” value (30 °C) was -3.3 ± 0.45 and the “self-splicing fitness (ln)” value (37 °C) is -1.98 ± 0.36.

CCAGAGCAAUAUUACGCGCA: for the setting “30 °C”, the “self-splicing fitness (ln)” value is -3.16 ± 0.25. Consider AAACAGCAAUAUUACGGACG, for which the “self-splicing fitness (ln)” value was -2.25 ± 0.087 (30 °C) and -0.676 ± 0.097 (37 °C).

Consider UUAUAGCAAUAUUACGUUGC, for which the “self-splicing fitness (ln)” value runs as follows: (30 °C) -3.27 ± 0.36; (37 °C) -3.07 ± 0.4. For GGCUAGCAAUAUUACGGAUG, in that order: -0.642 ± 0.13 and -0.56 ± 0.15. For AUCCAGCAAUAUUACGUCCU, in that order: -1.47 ± 0.11 and -0.253 ± 0.14.

Take CAUAAGCAAUAUUACGAGAC: where the note is “30 °C”, the “self-splicing fitness (ln)” value was -3.9 ± 0.37. Take CCUCAGCAAUAUUACGGCAA: the “self-splicing fitness (ln)” value reads like this: (30 °C) -3.12 ± 0.24; (37 °C) -2.41 ± 0.23. Consider CCGCAGCAAUAUUACGGACC, for which, where the note is “30 °C”, the “self-splicing fitness (ln)” value is -3.45 ± 0.41.

With UAAAAGCAAUAUUACGUUGG, the “self-splicing fitness (ln)” value is, setting by setting: (30 °C) -2.36 ± 0.1; (37 °C) -1.42 ± 0.12.

Regarding GCUUAGCAAUAUUACGAAAA, the “self-splicing fitness (ln)” value by setting is: (30 °C) -1.6 ± 0.29; (37 °C) -1.12 ± 0.28. For CUGUAGCAAUAUUACGGCUG, in that order: -0.442 ± 0.099 and -0.0988 ± 0.13. Take GGCAAGCAAUAUUACGAGUG: the “self-splicing fitness (ln)” value is, setting by setting: (30 °C) -1.1 ± 0.069; (37 °C) -0.88 ± 0.071. In the same order, the values of AGGGAGCAAUAUUACGGGUC are -4.05 ± 0.3 and -3.12 ± 0.22. As to GCGAAGCAAUAUUACGUUGG, the “self-splicing fitness (ln)” value was -4.02 ± 0.17 (30 °C) and -2.97 ± 0.18 (37 °C).

As for ACGCAGCAAUAUUACGUCUC, the “self-splicing fitness (ln)” value (30 °C) is -3.88 ± 0.13 and the “self-splicing fitness (ln)” value (37 °C) was -0.606 ± 0.084.
